The subject of test [1] is mutant CALR neoepitope peptides. Kind of test: Binding of 4D7 to peptides covering regions of the immunizing neopeptide. The arrangement: species or system human. How it is done: B. Diluting concentrations of 4D7 to bound full-length 30 amino acid peptide compared to scrambled, C-terminal and N-terminal 11 amino acid peptides as shown in A (n=3). C. Scatchard analysis showing dissociation constant of 4D7 using I^125-labelled and unlabelled 4D7 bound to full-length 30 amino acid peptide (n=3). D. Histogram showing fluorescence intensity of 4D7 conjugated to phycoerythrin at a 4 μg/mL TF-1 TpoR CALR^del 61 vs TF-1 TpoR compared to unstained. E. TF-1 TpoR cells with endogenous wild type CALR cultured in the presence of TPO and 2, 10 or 20 μg/mL 4D7 anti-mutant CALR antibody or 20 μg/mL control IgG antibody (n=3). F. Proliferation curves of factor-independent TF-1 TpoR CALR^del61 cells cultured with 2, 10 or 20 μg/mL 4D7 or 20 μg/mL of control IgG antibody (n=3). G Proliferation curves of factor-independent TF-1 TpoR CALR^del52 cells cultured with 10 or 20 µg/mL 4D7 or 20 μg/mL of control IgG antibody (n=3). Data information: For panels E-G, bars represent standard error of the mean summarizing 3 independent experiments performed in triplicate, with a one-way ANOVA with Bonferroni correction used to determine statistical significance.

Test [2] relates to TF-1 TpoR CALR^del52 cells. Kind of test: Cell proliferation, trypan blue exclusion. Particulars: over 5 days at 2, 10 and 20 μg/mL. It is filed as cell-based, human. How it is done:
(§1) In brief, cells were seeded at 5×10^4/mL in standard growth media, with any necessary cytokines, and the addition of 20 μg/mL IgG or 2, 10 or 20 μg/mL 4D7. Cells were seeded in triplicate and each well was counted in triplicate every 24 hours for 5 days using trypan blue exclusion.

In test [3] the test system is TF-1 cells expressing TpoR alone (endogenous wild type CALR). Kind of test: Cell proliferation, trypan blue exclusion. It is filed as cell-based, human. Particulars: in presence of TPO; 2, 10 or 20 μg/mL. On the procedure:
as §1

Test [4] relates to TF-1 TpoR CALR^del61 cells. Kind of test: Cell cycle analysis by flow cytometry (propidium iodide). The format is cell-based, human. As to conditions: 20 μg/mL, 48 hours; P=0.001. How it is done:
Cell cycle analysis was carried out by flow cytometry. Briefly, TF-1 TpoR and TF-1 TpoR CALR^del61 cells were seeded at a concentration of ˜2×10^5 per well in triplicate under standard culture conditions, with the addition of 20 μg/mL IgG or 4D7. Cells were treated for 48 hours and were fixed by 70% (v/v) ethanol at 4° C. overnight. Fixed cells were rinsed twice with PBS and stained with 50 μg/mL propridium iodide (PI: ThermoFisher)+100 μg/mL RNAse A (QIAGEN). Cells were incubated for 30 minutes at RT in the dark and analysed on the BD FACSCantoII (BD Biosciences).
(In flow cytometry, cells or beads pass a laser one at a time.)

Test [5] has as its system ruxolitinib-resistant TF-1 TpoR CALR^del61 cells. Kind of test: Colony formation in MethoCult. The format is cell-based, human. Particulars: after 72 hours of treatment. On the procedure:
A. Graph showing effect of ruxolitinib on megakaryocyte differentiation at 50 and 100 nM in healthy CD34+ cells (n=4). B. Effect of 4D7 on TPO-dependent megakaryocyte differentiation of healthy CD34+ cells cultured with 20 μg/mL 4D7 or IgG control (n=4). C. Total numbers of hematopoietic colonies plated in MethoCult from healthy cord blood after treatment with 4D7 or IgG. CFU-GM, colony forming unit-granulocyte macrophage: BFU-E, blast forming unit-erythroid: CFU-GEMM, colony forming unit granulocyte, erythroid, monocyte, megakaryocyte (n=3).D. CD41+megakaryocyte colonies from healthy CD34+ cells observed on collagen matrix after 4D7 treatment. Colonies were cultured in TPO, SCF. IL-9 and IL-3. E. Number of megakaryocyte colony forming units observed in MegaCult assay after treatment of healthy cord blood CD34+ cells with either IgG or 4D7 (n=3). F. Western blot showing signalling in ruxolitinib-resistant TF-1 TpoR CALR^del61 compared to ruxolitinib sensitive TF-1 TpoR CALR^del61 cells after treatment with 100 nM ruxolitinib for 16 hours or 30 minutes and blotted for phospho-STAT5, total STAT5, phospho-ERK, total ERK and actin as indicated. Ruxolitinib-sensitive cells were non-viable after 16 hours of treatment. […] Cells counted using Trypan Blue exclusion with replicate wells (n=3). […]

Test [6] has as its system ruxolitinib-resistant TF-1 TpoR CALR^del61 cells in NSG mice. In words: Bone marrow engraftment xenograft model, ruxolitinib-resistant cells. The format is in vivo. As to conditions: cells resistant to 100 nM ruxolitinib; 12.5 mg/kg twice weekly from day 7; P=0.0008. On the procedure: All procedures were approved by the South Australian Health and Medical Research Animal Ethics Committee (Protocol SAM21-018). Bone marrow engraftment model: 4-6 week old NSG mice were x-ray irradiated with 150 cGy and 5×10^5 cells (TF-1-TpoR CALR^del61) or 5×10^4 cells (100 nM ruxolitinib resistant TF-1 TpoR CALR^del61) were intravenously injected into mice. Seven days after injection, mice were administered 12.5 mg/kg IgG or 4D7 by intraperitoneal injection twice weekly. Tail vein bleeds were taken at 3 weeks and analysed via flow cytometry to determine human leukaemia content in the peripheral blood. Leukemic cells were PI-, mCD45.1, hCD33+, zsGreen+. Mice were monitored daily and euthanized once clinical symptoms were observed. At the time of euthanasia, cardiac puncture was performed to obtain both peripheral blood and serum for analysis. Additionally, bone marrow from both femurs, spine and spleens were analysed for leukemic content as detailed above. Chloroma model: 4-6 week old NSG mice were anaesthetised by isoflurane inhalation and shaved on the left back/flank and 1×10^7 cells were injected into the mice. Cells were pre-treated with 20 μg/mL IgG or 4D7 for 1 hour prior to injection. Seven days after injection, mice were administered 12.5 mg/kg IgG or 4D7 by intraperitoneal injection twice weekly. Tumour progression was assessed through caliper measurements every 2 days. […]

B1: 4D7: rat monoclonal IgG2a antibody against the mutant CALR neoepitope; VH SEQ ID NO: 5, VL SEQ ID NO: 7 (antibody, listed as Rattus rattus, V domains shown)
VH: QVQLQQSGAELAKPGSSVKISCKASGYTFTNYDMSWIKQRPGQALEWIGAINPGNGVTDYNEKFRGKATLTVDKSSSTAFMQLSSLTPEDTAVYHCAREYRDNYGYFDYWGQGVMVTVSS
VL: DIVLTQTPVSLSVTLGDQASISCRSSQSLEYSDGYTYLDWFLQKPGQSPQLLIYEVSSRFSGVPDRFIGRGSGTDFTLKISRVEPEDLGVYYCFQATHDPFTFGSGTKLEIK
As to B1, the “binding to C-terminal portion of the immunogen” value in test [1] (C-terminal 11 amino acid peptide) is “no binding”. The “region of the immunizing neopeptide to which binding was mapped” value in test [1] (peptides covering different regions of the neopeptide) is 11 amino acids of the N-terminus. Also, in test [1] (scrambled peptide), the “binding to scrambled peptide” value is recorded as “no binding”. Also, in test [2], the TPO-independent cell growth result is on record as “blockade of TPO-independent cell growth”. For the same molecule, the inhibition of proliferation entry in test [3] is listed as “no inhibition”. Also, the “sub-Go fraction compared to IgG control” value in test [4] is “significant increase”. In test [5], the “inhibitory activity on colony formation” value is listed as “strong inhibitory activity”. For the same molecule, the “survival, hazard ratio” value in test [6] is on record as 0.26.

Values taken from patent publication US20250236667A1, “ANTIBODIES TO MUTANT CALRETICULIN AND USES THEREOF” (CENTRAL ADELAIDE LOCAL HEALTH NETWORK INC, priority 2021, published 2025).
